# Laboratory results taken from paper PMC11193732 (Scientific Reports, 2024).
# T1: SARS-CoV-2 spike 1099-1112 peptide (GTH peptide) (Severe acute respiratory syndrome …)
# T1 construct: SARS-CoV-2 spike protein, residues 1099-1112, between HR1 and HR2 of the S2 domain
# T1 chain: GTHWFVTQRNFYEP
# B1: 5G2 monoclonal antibody (antibody, V domains shown)
# VH: QIQLVQSGPELKKPGATVKISCKASGYTFTNYGMHWLKQTPGKVLKWMGLINTYTGEPKYADDFKGRFAFSLETSASTAYLQINNLRSEDTATYFCARKGLGLRPPMDSWGQGTSVTVSS
# VL: QIVLSQSPAILSASPGEKVTMTCRASSSVNYMHWCQQKPGSSPKPLIHGTSNLASGVPGRFSGSGSGTSYSLTISRVEAEDAATYYCHQWNSYPLTFGAGTRLEL
# notes: also called 5G2 mAb; mAb 5G2
# B2: recombinant 5G2 (cloned heavy and light chains fused to mouse IgG constant γ1 and κ chains) (antibody, V domains shown)
# VH: QIQLVQSGPELKKPGATVKISCKASGYTFTNYGMHWLKQTPGKVLKWMGLINTYTGEPKYADDFKGRFAFSLETSASTAYLQINNLRSEDTATYFCARKGLGLRPPMDSWGQGTSVTVSS
# VL: QIVLSQSPAILSASPGEKVTMTCRASSSVNYMHWCQQKPGSSPKPLIHGTSNLASGVPGRFSGSGSGTSYSLTISRVEAEDAATYYCHQWNSYPLTFGAGTRLEL
# notes: as the heavy chain variable region of m1; mouse IgG constant γ1 chain; as the light chain variable region of m1; mouse immunoglobulin constant κ chain; Mouse IgG1 kappa; also called recombinant heavy and light chains of 5G2; 293FT + cDNA
# B3: MBP-sc5G2-6xHis produced by HEK293FT cells (scFv, V domains shown)
# VH: QIQLVQSGPELKKPGATVKISCKASGYTFTNYGMHWLKQTPGKVLKWMGLINTYTGEPKYADDFKGRFAFSLETSASTAYLQINNLRSEDTATYFCARKGLGLRPPMDSWGQGTSVTVSS
# VL: QIVLSQSPAILSASPGEKVTMTCRASSSVNYMHWCQQKPGSSPKPLIHGTSNLASGVPGRFSGSGSGTSYSLTISRVEAEDAATYYCHQWNSYPLTFGAGTRLEL
# notes: as the heavy chain variable region of m1; as the light chain variable region of m1; The MBP cDNA came from the pMAL-p2 vector; not shown: MBP, N-terminal, kept; 6xHis, C-terminal, kept
# B4: MBP-sc5G2-6xHis produced by E. coli (refolded) (scFv, V domains shown)
# VH: QIQLVQSGPELKKPGATVKISCKASGYTFTNYGMHWLKQTPGKVLKWMGLINTYTGEPKYADDFKGRFAFSLETSASTAYLQINNLRSEDTATYFCARKGLGLRPPMDSWGQGTSVTVSS
# VL: QIVLSQSPAILSASPGEKVTMTCRASSSVNYMHWCQQKPGSSPKPLIHGTSNLASGVPGRFSGSGSGTSYSLTISRVEAEDAATYYCHQWNSYPLTFGAGTRLEL
# notes: as the heavy chain variable region of m1; as the light chain variable region of m1; Same cDNA as m3, in pET22b; not shown: MBP, N-terminal, kept; 6xHis, C-terminal, kept
# B5: sc5G2-6xHis produced by E. coli (refolded) (scFv, V domains shown)
# VH: QIQLVQSGPELKKPGATVKISCKASGYTFTNYGMHWLKQTPGKVLKWMGLINTYTGEPKYADDFKGRFAFSLETSASTAYLQINNLRSEDTATYFCARKGLGLRPPMDSWGQGTSVTVSS
# VL: QIVLSQSPAILSASPGEKVTMTCRASSSVNYMHWCQQKPGSSPKPLIHGTSNLASGVPGRFSGSGSGTSYSLTISRVEAEDAATYYCHQWNSYPLTFGAGTRLEL
# notes: as the heavy chain variable region of m1; as the light chain variable region of m1; also called MBP-free sc5G2
# What was measured:
# [1] = target: T2, 6xHis-tagged recombinant SARS-CoV-2 (2019-nCoV) spike protein S1 + S2 extracellular domain (Severe acute respiratory syndrome …, UniProt P0DTC2); experiment: ELISA; […] (40 ng/mL, 50 μL) […]; details: one partner purified
# T2 construct: SARS-CoV-2 (2019-nCoV) spike protein, S1 + S2 extracellular domain; lacks the cytoplasmic region; retains the S1/S2 cleavage regions; No catalogue number or limits are printed; also called recombinant S1 + S2; recombinant spike protein
# [2] = target: T3, spike protein (S1 + S2) of SARS-CoV-2 WT (Wuhan strain) (SARS-CoV-2, Wuhan (WT), UniProt P0DTC2); experiment: ELISA; wells coated with 1 × 10^5 heat-inactivated virus in PBS; 5G2 mAb added; anti-mouse IgG-F(ab')2-HRP, A450; details: one partner purified
# T3 construct: uncleaved S1 + S2 spike protein of SARS-CoV-2 WT (Wuhan strain), as made by the virus; also called original Wuhan strain; the coronavirus
# [3] = target: T1, SARS-CoV-2 spike 1099-1112 peptide (GTH …); experiment: SPR; details: both partners purified
# [4] = target: T4, 6xHis-tagged recombinant SARS-CoV-2 (2019-nCoV) spike S2 extracellular domain (SARS-CoV-2, Wuhan (2019-nCoV), UniProt P0DTC2); experiment: western blot; recombinant spike proteins separated by SDS-PAGE on nitrocellulose; 5G2 mAb 0.2 μg/mL, RT 1 h; anti-mouse IgG-F(ab')2-HRP; details: both partners purified
# T4 construct: SARS-CoV-2 (2019-nCoV) spike protein, S2 extracellular domain; lacks the cytoplasmic region; No catalogue number or limits are printed; also called recombinant S2; S2 subunit of the recombinant spike protein
# [5] = target: S2 subunit of the SARS-CoV-2 WT spike protein in infected Vero cells (SARS-CoV-2, Wuhan (WT), UniProt P0DTC2); experiment: western blot; details: one partner purified
# [6] = target: T4, 6xHis-tagged recombinant SARS-CoV-2 …; experiment: western blot; details: one partner purified
# [7] = target: T2, 6xHis-tagged recombinant SARS-CoV-2 …; experiment: western blot; details: one partner purified
# [8] = target: T3, spike protein (S1 + S2) of SARS-CoV-2 …; experiment: western blot; details: one partner purified
# [9] = target: T4, 6xHis-tagged recombinant SARS-CoV-2 …; experiment: western blot; recombinant spike proteins separated by SDS-PAGE on nitrocellulose; MBP-sc5G2-6xHis 0.8 μg/mL, RT 1 h; anti-MBP antibody and anti-mouse IgG-F(ab')2-HRP; details: both partners purified
# [10] = target: T2, 6xHis-tagged recombinant SARS-CoV-2 …; experiment: as above; details: both partners purified
# [11] = target: T5, recombinant S2 subunit of the spike protein without 6xHis (SARS-CoV-2, Wuhan (WT), UniProt P0DTC2); experiment: western blot
# T5 construct: also called r-S2; recombinant S2 without 6xHis
binder,measurement,setting,value
B1,binding result,[1],binds
same,binding result,[2],binds
same,Kd,[3],0.11 nM
same,binding result,[4],binds
same,binding result,[5],binds
B2,binding result,[6],binds
same,binding result,[7],binds
B3,binding result,[8],binds
same,binding result,[9],binds
same,binding result,[10],binds
B4,binding result,[8],binds
same,binding result,[9],binds
same,binding result,[10],binds
B5,binding result,[11],binds
same,binding result,[8],binds
